Results reported in the nanobody polyreactivity screen of Harvey et al. (2022).

assay: yeast display, Sf9 membrane polyspecificity reagent, FACS + sequencing; frameworks hold sequencing errors
Outline: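 Using colony PCR, genes from sorted yeast display clones were amplified, then sequenced on MiSeq at 2 × 250 and filtered by CDR length. The clones had been stained with 10% biotinylated, detergent-solubilized Sf9 membrane reagent for 1 hour at 4 °C and sorted by FACS into low and high (top ~1%) gates on anti-HA and streptavidin fluorescence. Polyreactivity labels come from the gate of origin.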

Sequence | polyreactivity (PSR sort gate)
QVQLVDSGGGLVQAGGSLRLSCGASGFIIARNAMGGYRHPPGKERELVAAISRNGGRTSYADSVKGRFTISRDTAKNTVYLQMNSLNPEDTAVYYCAKAQGYVTWTGAYAYDYWGQGTQVTVSS | high polyreactivity
QVQLVDSGGGLVQAGGSLRLSCSASGITNGRNTMGLYRQAPGKERELVAAIDSGGNTYADSVKGRFTISRDNAKNTVYLQMNSLKPEDTAVYYCAVDGGEFSSYGYWGQGTQVTVSS | low polyreactivity
QVQLVDSGGGLVQAGGSLRLSFAASGSTFHTYAMGWYRQAPGTERELVATNTWDGGRTYYADSVKGRFTISRDIAKYTVYLQMNSLKPEDTAVYYCASVYWSIEMDYWGQGSQVTVSS | low polyreactivity
QVQLVDSGGGLVQAGGSLRLSSAASGITFQRYAMGWYRQAPGKERELVAGINGRGGSTYYADSVKGRFTISRDNAKNTVYLQMNSLKPEDTAVYYCNAVYAGRYFGFDYWGQGTQVTVSS | high polyreactivity
QVQLVDSGGGLVQAGGSLRLTCAASGSTYYRNAMGWYRQAPGKETEFVAAISFRGGGTYADSVKGRFTISRDNAKNTVYLQMNSLKPDDTAVYYCDSDHLSYRRRYEYWGQGTKVTVSS | low polyreactivity
QVQLVDSGGGLVQAGGSLRVSCAASGIIFYYNAMGWYRQAPGKEREFVASISSRGGSTYYADSVKGRFTISRDNSKNTVYLQMNSLKPEDTAVYYCAAAFDWRRQRYNYWGQGTQVTVTS | high polyreactivity
QVQLVDSGGGLVQAGGSLSLSCAASGSTFGYYSMGWYRESPGKERELVAAITWSGDSTYADSVKGRFTISRDNAKNTVYLQMNSLKPEDTAVYYCARRGFLGHWPRPSYDYWGQGTQVTVSS | low polyreactivity
QVQLVDSGGGLVQAGVSLRISCAASGIIIRYYGMGWYRQAPGKERELVARIRWTGGSTYYADSVKGRFTISRYNAKNTVYLQMNSLKQEETAVYYCAADIWQYSRIANSHPYDYWGQGTQVTVSS | low polyreactivity
QVQLVDSGGGLVQARGSLRLSCAASGYNFGNAMGWYRQPPGQEREFVAAISSSGSSTYYADSVKGRFTISRDNAKNTVYLQMNSLKPEDTAVYYCAKSRRSAAPKYDYWGQGTQVTVSS | high polyreactivity
QVQLVDSGGGLVQEGGSLRLSCAASGLTFYSNAMGWYRQARGKERELVARISTGGSTYADSVKGRFTISRDNAKNTVYLQMNSLKPEVTAVYYCAAEYNLRTYWGDYWGQGTQVTVSS | low polyreactivity
QVQLVDSGGGLVQEVGSLRLSCAASGSTFPFNAMGWYRQAPGKERELVATISGRGGSTYYADSVKGRFTISRDNAKNTVYLQMNSLKPEDTAVYYCAAEIHDRFDSWGQGTQVTVSS | low polyreactivity
QVQLVDSGGRLVQAGGSLRLSCAASGRIFVNNAMRWYRQAPGKERELVAAITRGGSTYYADSVKGRFTLSRDNAKNTVYLQMNSLKPEDTAVYYCDSDYQRNDFRWYDYWGQGTHVTVSS | low polyreactivity
QVQLVDSGGRLVQAGGSLRLSSPASGLIISAYAMGWYRQAPGKEMEFVAAISRSGGITYYADSVKGRFTISRDNAKNTVYLQMNSLKPEDTAVYYCNARLYDPTLKFGYWGQGTQVTVSS | high polyreactivity
QVQLVDSGGVLVQAGGSLSLSCAASGITFPINAMGWYRQAPGKEREFVATISFSGASTYYADSVKGRFTISRDNAKNSVYLQMNSLKREDTAVYYCAARWKPPYWGRYYYWGQGTQVTVSS | high polyreactivity
QVQLVDSGRGLVQAGGSLRLSCAASGSIFYYNTMGWYRQAPVKERELVAAISSSDGSTYYADSVKGRFTISRDNAKNTVYLQMNSLKPEDTAVYYCNADLIYGEEYDYWGQGTQVTVSS | low polyreactivity
QVQLVDSVGGLVQAGGSLRLSCAASGFIFGRNSMGWYIQAPGKERELVAGISSRGGRTYYADSVKGRFTISRDNAKNTVYLQMNSLKPEDTAVYYCAAAGLTDYVRYDYWGQGTQVTVSS | high polyreactivity
QVQLVDSVGGLVQAGGSLRLSCAASGFTFGVNVMGWYRQEPGKEREFVAAITWSGDSTYYADSVKGRFTISRDNAKNTVYLQMNSLKPEDSAVYYCAADGNTWPADFLSYYFEFDEYWGQGTQVTVSS | low polyreactivity
QVQLVDSVGGLVQAGGSLRLSCAASGRIFRYYAMGWYRQAPRKERELVAAITWSGGSTYYADSVKGRFTISRDNAKNTVYLQMNSLKPEDTAVYYCNADSVYAGFDYWGQGTQVTVSS | low polyreactivity
QVQLVDTGGGLVQAGGSLRLSCAASGSTFYFNAMGWYRLAPGKERELVAAISYSGGSTYYADSVKGRFTISRDNAKNTVYFQMNSLKPEDTAVYYCNARGLKSYYPGYWFRGDDWGQGTQVTVSS | high polyreactivity
QVQLVEAGAGLVQAGGSLRLSCAASGGIFGQYTRGWSRHAPGKERELVAGISTSGGSTYYADSVKGRFTISRDYAKNTVYLQMNSLKPGDTAVYYCAAGSYRKRVTNYSYRTPYGYWGHGTQVTVSS | high polyreactivity
QVQLVEAGGGFVQAGGSLRLSCAASGFTFDYYAMGSYRQAHGKERELVAAITLNGGSTYYADSVKGRFTISRDNAKNTVYLQMNSLKPEDPAVYYCAADGSGYYDWYYYWGHGTQVTVSS | low polyreactivity

Sequence | polyreactivity (PSR sort gate)
QVQLVEAGGGLVQAGGSLRLSCAASGFIFYGYMGWYIQAHGKERELVAAISYTGGSTYYADSVKGRFTISRDNAKNTVYLQMISLKPEDTAVYYCARDWRTKWFGYWGQGTQVTVSS | low polyreactivity
QVQLVEAGGGLVQAGGSLRLSCAASGIIFGFYAMGWYRQAPGKERELVAAITNDGGNTNYADSVKGRFTISRDNAKNTVYLQMNSLKPEDTAVYYCNADRTQDRTPYTYATFDYWGQGTQVTVSS | low polyreactivity
QVQLVEAGGGLVQAGGSLRLSCAASGPIFPLYAKGWYRQAPGKERELVAAISSGGTTYYADSVKGRFTISRDNAKNTVYLQMNSLKQEDTAVYYCARRPAQRLGRFDYWGQGTQVTVSS | low polyreactivity
QVQLVEAGGGLVQAGGSLRLSCAASGRTFSFNAMGCYRQAPGKERELVAAISRRGTSTYYADSVKGRFTISRDNAKNSVYLQMNSLKPEYTAVYYCAARSTYTRREYDYWGQGTQVTVSS | high polyreactivity
QVQLVEAGGGLVQAGGSLRLSCAASGSTFKRYAMGWYRQAPGKERELVASISSGGSTNYADSVKGRFTISRDNAKNTVYLQMNSLKPEDTAVDYCAVSYRSFRYYWERYYSWGQGTQVTVSS | high polyreactivity
QVQLVEAGGGLVQAGGSLRLSCAASGSTLVYNDMGWYRQAPGKEREFVAAIRSNDGSTYYADSVKGRFTISRDNAKNTVYLQMNSLKPEDTAVYFCNKDVWDGYDWPEFDYWGQGTQVTVSS | low polyreactivity
QVQLVEAGGGLVQAGGSLRLSCASSGSIITVYDMGWYRQPPGKERELVATITGSDGRTDYADSVKGRFTISRDNAKNTVYLQMNSLKPEDTAVYYCAAHVFQWKNRQSLLFDQGYYWGQGTQVTVSS | low polyreactivity
QVQLVEAGGGLVQAGGSLRLSGAASGRTFSLYAMGWYRQAPGKERELVAAITVSGGSTYYADSVKGRFTISRDNAKNTVYLQMNSLKPEDTAVYYCAAEGQPFRYYLLDYWGQGTQVTVSS | low polyreactivity
QVQLVEAGGGLVQAGGSLRLTCAASGSIISRYAMGWYRQAPGKEREFVAAISSSGGSTYYADSVKGRFTISRDNAKNTVDVQMNSLKPEDTAVYYCARYAYKVPIMGYWGQGTQVTVSS | high polyreactivity
QVQLVELGGGLVQAGGSLRLSCAASGRIFTHNAMGWYRQAPGKDRELVAAISYSGVSTYYADSVKGRFTISRDNAKNTVYLQMNSLKPEDTAVYYCARRYWYPDAFYRYDYWGQGTQVTVSS | low polyreactivity
QVQLVEPGGGLVQAGGSLRLSCAASGRTFYRYAMGWYRQAPGKERELVAAITWSGGRTYYADSVKGRFTMSRDYAKNTVYLQMNSLKPEDTAVYYCAADNSYRGYHSPYDYWGQGTQVTVSS | low polyreactivity
QVQLVERGGGLVQAGGSHRLSCAASGRIFPGYAKGWYRQAPGKELELVAAISRIGGDTYYADSVKGRFTISRDNAKNTVYLQMNSLKPEDTPVYYCAARYGRHRVSWYATWRYGYWGQGTQVTVSS | low polyreactivity
QVQLVESAAGLVLAGGSLRLSCAASGSIFRFYAMGWSRQAPGQERELVAGITLSGASTYYADSVKGRFTISRDNAKNTVYLQMNSLKPEDTAVYYCAKRYRLDGFYYWGQGTQVTVSS | high polyreactivity
QVQLVESAAGLVQAGGSLRLSCAASGGIFWVYAMGWYRQAPGKERELVAAISNSDTSTSDADSVKGRFTISRDTAKNTVYLQMYSLKPEDTAVYNCNGDSPSLSGDIWGQGTQVTVTS | low polyreactivity
QVQLVESAAGLVQAGGSLRLSCAASGIIFSKYAMGWYRQAPGKERELVAASSSSGGSTYYADSVKGRFTISRDNAKNTVYLQMNSLKPEDTAVYYCAKGGGPNSRGYWGQGTQVTVSS | high polyreactivity
QVQLVESAAGLVQAGGSLRLSCAASGLILDEYAMGWYRQAPGKEMELVAAISWSGGSTYYADSVKGRFTISRDNAKNTVYLQMNSLKPEDTAVYYCAADRVWFSDNSYYYWGQGTQVTVSS | high polyreactivity
QVQLVESAAGLVQAGGSLRLSCAASGRIFGYYTMGWYRQAPGKERELVAAINGRGTSTYYADSVKGRFTISRDNAKYTVYLQMNSLKPEDTAVYYCAAQLYYYGQYKHFDYWGQGTQVTVSS | high polyreactivity
QVQLVESAAGLVQAGVSLRLSCAASGFTLFYYAMGWYRQEPGKERELVAGISRRGGSTYYADSVKGRFTISRDNEKNTVYLQMNSLKPEDTAVYYCAAGLCGYKSDTRGDYWGQGTQVTVSS | low polyreactivity
QVQLVESAGGIVQAGGSLRLSCAASGITFPGNAMGWYRPAPGKERELVAAIDCYGGSTYYADTVKGRFTISRDNAKNTVYLQLNSLKPEDTAVYYCATDEYFSYYGYFLDAYWGQGTQVTLSS | low polyreactivity
QVQLVESAGGIVQEGGSLRLSCAASGGTFTNYALGWYRQAPGKERELVAAITDSGAHTYYADSVKGRFTISRDNAKNKVYLQMYCLKPEDTAVYYCNAELDLYTDFDYWGQVTQVTVSS | low polyreactivity
